Results from paper PMC6374739.

B1: mCherry-UVR8-GFP (wild-type UV … LOCUS 8, from the pFRET-NcCg-DEST vector) [Arabidopsis thaliana] / itself (parent)
chain: MAEDMAADEVTAPPRKVLIISAGASHSVALLSGDIVCSWGRGEDGQLGHGDAEDRPSPTQLSALDGHQIVSVTCGADHTVAYSQSGMEVYSWGWGDFGRLGHGNSSDLFTPLPIKALHGIRIKQIACGDSHCLAVTMEGEVQSWGRNQNGQLGLGDTEDSLVPQKIQAFEGIRIKMVAAGAEHTAAVTEDGDLYGWGWGRYGNLGLGDRTDRLVPERVTSTGGEKMSMVACGWRHTISVSYSGALYTYGWSKYGQLGHGDLEDHLIPHKLEALSNSFISQISGGWRHTMALTSDGKLYGWGWNKFGQVGVGNNLDQCSPVQVRFPDDQKVVQVSCGWRHTLAVTERNNVFAWGRGTNGQLGIGESVDRNFPKIIEALSVDGASGQHIESSNIDPSSGKSWVSPAERYAVVPDETGLTDGSSKGNGGDISVPQTDVKRVRI

How the values were obtained:
Settings in all cases: with itself, read off a plot
itself [1] = variants of: B1; assay: FRET by acceptor photobleaching in tobacco leaves, pFRET-NcCg-DEST vector
itself [2] = variants of: B1; assay: FRET (sensitized emission ratio mCherry(488)/GFP(488)) in tobacco leaves, pFRET-NcCg-DEST vector
itself [3] = variants of: B1; assay: intermolecular FRET (sensitized emission ratio mCherry(488)/GFP(488)) in tobacco leaves, pFRET-2in1-DEST vector
[4] = +UV-B: 3 μmol m–2 s–1 broadband UV-B for 1 hour, parent: 11
[5] = +UV-B: 3 μmol m–2 s–1 broadband UV-B for 1 hour, parent: 0.5
[6] = +UV-B: 3 μmol m–2 s–1 broadband UV-B for 1 hour, parent: 0.44

Row | response (itself [1]; [4]) | response (itself [1]; -UV-B, parent: 18) | Variant | response (itself [2]; [5]) | response (itself [2]; -UV-B, parent: 0.56) | response (itself [3]; [6]) | response (itself [3]; -UV-B, parent: 0.5)
1 | 17% | 17% | chain 1 W285F | 0.58 | 0.59 | 0.51 | 0.5
2 | 9.7% | 9.6% | chain 1 D96N D107N | 0.43 | 0.43 | 0.33 | 0.33
